Values quoted from earlier work in publication PMC7616283.

Target: CCR8 (Homo sapiens) (UniProt P51685)
Sequence (P51685 whole entry): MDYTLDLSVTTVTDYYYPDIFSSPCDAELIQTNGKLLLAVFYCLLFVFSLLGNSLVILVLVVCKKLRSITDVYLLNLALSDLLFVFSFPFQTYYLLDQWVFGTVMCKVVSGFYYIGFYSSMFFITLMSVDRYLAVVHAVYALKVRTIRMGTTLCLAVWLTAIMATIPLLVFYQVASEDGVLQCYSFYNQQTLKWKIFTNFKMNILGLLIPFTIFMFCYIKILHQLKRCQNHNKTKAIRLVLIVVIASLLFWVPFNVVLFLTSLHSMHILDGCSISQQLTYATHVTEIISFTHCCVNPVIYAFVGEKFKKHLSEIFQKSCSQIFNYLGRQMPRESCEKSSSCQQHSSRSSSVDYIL

Chain of CCL18 (P55774 24-89): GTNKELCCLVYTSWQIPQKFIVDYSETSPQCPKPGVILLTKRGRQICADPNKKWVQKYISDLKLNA

Kd: 1.9 nM
Substance: CCL18 (from UniProt P55774)
